{"source": "patent US7223556", "about": "(Harvard, dated 2007)", "key": {"[1]": {"molecular_target": "Skp1p (Saccharomyces cerevisiae) (UniProt P52286)", "sequence (P52286 whole entry)": "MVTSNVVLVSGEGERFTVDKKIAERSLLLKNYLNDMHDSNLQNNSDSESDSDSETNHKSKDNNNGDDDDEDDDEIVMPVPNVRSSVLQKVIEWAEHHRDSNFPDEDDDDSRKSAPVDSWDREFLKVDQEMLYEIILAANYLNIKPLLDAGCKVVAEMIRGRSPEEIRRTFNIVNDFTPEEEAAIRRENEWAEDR", "test": "cell-based or functional assay"}, "[2]": {"molecular_target": "EE-tagged HPV16-E2 (human papillomavirus type 16) (UniProt P03120)", "sequence (P03120 whole entry)": "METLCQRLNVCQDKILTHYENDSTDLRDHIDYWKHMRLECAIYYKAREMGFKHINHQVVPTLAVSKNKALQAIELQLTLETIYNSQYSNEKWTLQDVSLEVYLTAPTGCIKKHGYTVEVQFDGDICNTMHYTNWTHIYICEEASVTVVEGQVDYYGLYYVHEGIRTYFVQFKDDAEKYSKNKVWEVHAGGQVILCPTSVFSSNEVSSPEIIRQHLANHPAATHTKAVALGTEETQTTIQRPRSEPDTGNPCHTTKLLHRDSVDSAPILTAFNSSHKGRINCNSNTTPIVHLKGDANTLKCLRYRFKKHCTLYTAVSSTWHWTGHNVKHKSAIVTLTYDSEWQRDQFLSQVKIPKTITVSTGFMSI", "test": "cell-based or functional assay"}, "[3]": {"molecular_target": "retinoblastoma tumor suppressor protein (pRB) (UniProt P06400)", "test": "cell-based or functional assay"}, "[4]": {"molecular_target": "T1, retinoblastoma tumor suppressor protein (pRB) (UniProt P06400 1-928)", "T1 construct": "For the co-immunoprecipitation it was translated in vitro and 35S-labelled; In yeast Y81 cells it was expressed from plasmid p2202TRB", "T1 sequence": "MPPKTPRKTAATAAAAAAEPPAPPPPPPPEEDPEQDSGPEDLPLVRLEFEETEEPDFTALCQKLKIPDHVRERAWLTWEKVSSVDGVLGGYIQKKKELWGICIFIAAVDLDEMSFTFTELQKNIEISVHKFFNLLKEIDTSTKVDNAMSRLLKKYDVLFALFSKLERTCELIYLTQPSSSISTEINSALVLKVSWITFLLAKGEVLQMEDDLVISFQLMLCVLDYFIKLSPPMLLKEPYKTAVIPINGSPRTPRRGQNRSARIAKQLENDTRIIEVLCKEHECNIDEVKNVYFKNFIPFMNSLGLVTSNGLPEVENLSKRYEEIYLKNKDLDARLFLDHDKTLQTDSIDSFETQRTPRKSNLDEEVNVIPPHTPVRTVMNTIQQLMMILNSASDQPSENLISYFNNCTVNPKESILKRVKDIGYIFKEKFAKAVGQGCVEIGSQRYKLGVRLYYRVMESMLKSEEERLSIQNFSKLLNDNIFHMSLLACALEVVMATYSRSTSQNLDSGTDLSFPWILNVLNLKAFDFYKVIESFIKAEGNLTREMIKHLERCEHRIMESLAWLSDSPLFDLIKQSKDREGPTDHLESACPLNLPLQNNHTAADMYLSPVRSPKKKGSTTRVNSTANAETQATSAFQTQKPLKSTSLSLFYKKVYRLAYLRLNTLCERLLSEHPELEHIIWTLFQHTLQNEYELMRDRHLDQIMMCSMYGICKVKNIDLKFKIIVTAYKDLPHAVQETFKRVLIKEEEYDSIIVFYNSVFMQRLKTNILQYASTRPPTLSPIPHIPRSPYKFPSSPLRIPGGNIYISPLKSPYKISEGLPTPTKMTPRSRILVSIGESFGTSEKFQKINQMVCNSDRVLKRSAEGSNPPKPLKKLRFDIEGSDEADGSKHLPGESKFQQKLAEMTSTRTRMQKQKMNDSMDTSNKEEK", "test": "co-immunoprecipitation of in vitro translated 35S-labelled proteins with anti-Flag M2 antibody, SDS PAGE"}}, "data": [{"molecule": "Cdc4p(G300D) (from UniProt P07834 1-779)", "values": [{"measurement": "half life of the mutant Cdc4p protein after promoter shut-off in KY130 cells", "setting": "[1]", "result": "> 60", "unit": "min"}]}, {"molecule": "Cdc4p(ΔF)", "values": [{"measurement": "half life of the mutant Cdc4p protein after promoter shut-off in KY130 cells", "setting": "[1]", "result": "> 60", "unit": "min"}]}, {"molecule": "Cdc4p^F/WD-E1C (from UniProt P03114 424-649)", "values": [{"measurement": "half life of EE-E2 after promoter shut-off in INVSc1 yeast cells", "setting": "[2]", "result": 16, "unit": "min"}]}, {"molecule": "Cdc4p^F/WD-E7N (from UniProt P03129 2-35)", "values": [{"measurement": "half life of pRB after promoter shut-off in Y81 yeast cells", "setting": "[3]", "result": 70, "unit": "minutes"}]}, {"molecule": "Cdc4p^F/WD-βgal (from UniProt P00722 10-1024)", "values": [{"measurement": "half life of the βgal fusion after promoter shut-off in KY130 cells", "setting": "[1]", "result": 35, "unit": "min"}]}, {"molecule": "Flag-tagged βTrCP (other, Untagged βTrCP in lane 1 is the control for the anti-Flag immunoprecipitation; also called F-βTrCP; F-TrCP) MDPAEAVLQEKALKFMNSSEREDCNNGEPPRKIIPEKNSLRQTYNSCARLCLNQETVCLASTAMKTENCVAKTKLANGTSSMIVPKQRKLSASYEKEKELCVKYFEQWSESDQVEFVEHLISQMCHYQHGHINSYLKPMLQRDFITALPARGLDHIAENILSYLDAKSLCAAELVCKEWYRVTSDGMLWKKLIERMVRTDSLWRGLAERRGWGQYLFKNKPPDGNAPPNSFYRALYPKIIQDIETIESNWRCGRHSLQRIHCRSETSKGVYCLQYDDQKIVSGLRDNTIKIWDKNTLECKRILTGHTGSVLCLQYDERVIITGSSDSTVRVWDVNTGEMLNTLIHHCEAVLHLRFNNGMMVTCSKDRSIAVWDMASPTDITLRRVLVGHRAAVNVVDFDDKYIVSASGDRTIKVWNTSTCEFVRTLNGHKRGIACLQYRDRLVVSGSSDNTIRLWDIECGACLRVLEGHEELVRCIRFDNKRIVSGAYDGKIKVWDLVAALDPRAPAGTLCLRTLVEHSGRVFRLQFDEFQIVSSSHDDTILIWDFLNDPAAQAEPPRSPSRTYTYISR", "values": [{"measurement": "binding result", "setting": "[4]", "result": "no binding"}]}]}
